Assay [1] addresses huIL-17RA-FLAG-polyHis (human) (UniProt Q96F46). Briefly: multiplexed binning, huIgG row/col L (IL-17RA on AMH19/AML19 bead).
For assay [2] the target is unchanged. Briefly: multiplexed binning, huIgG row/col K (IL-17RA on AMH14/AML14 bead).
For assay [3] the target is unchanged. Briefly: multiplexed binning, huIgG row/col I (IL-17RA on AMH22/AML22 bead).

Normalized MFI data for one substance are collected here from patent publication US20120308566A1.

Regarding huIgG (antibody), the figures for the normalized MFI in assay [1], in assay [2] and in assay [3] were -36, -235 and -72, respectively.
